Experiment [1] addresses PTH receptor-cam8 "chameleon" (human). Kind of experiment: cell-based or functional assay.
In experiment [2] the target is T1, PTH receptor-cam8 "chameleon" (human).
T1 construct: Stably expressed in HEK293 cells; also tested in membranes made from these cells; also called PTHR-cam; PTHR-cam8
Kind of experiment: competition ligand binding, receptor stably expressed in HEK293 cells.

Here are results for one molecule from patent US20060272037A1 (JULIUS MAXIMILIANS UNIVERSITAT, published 2006).

T1 sequence (chain, as listed by the source limits assumed): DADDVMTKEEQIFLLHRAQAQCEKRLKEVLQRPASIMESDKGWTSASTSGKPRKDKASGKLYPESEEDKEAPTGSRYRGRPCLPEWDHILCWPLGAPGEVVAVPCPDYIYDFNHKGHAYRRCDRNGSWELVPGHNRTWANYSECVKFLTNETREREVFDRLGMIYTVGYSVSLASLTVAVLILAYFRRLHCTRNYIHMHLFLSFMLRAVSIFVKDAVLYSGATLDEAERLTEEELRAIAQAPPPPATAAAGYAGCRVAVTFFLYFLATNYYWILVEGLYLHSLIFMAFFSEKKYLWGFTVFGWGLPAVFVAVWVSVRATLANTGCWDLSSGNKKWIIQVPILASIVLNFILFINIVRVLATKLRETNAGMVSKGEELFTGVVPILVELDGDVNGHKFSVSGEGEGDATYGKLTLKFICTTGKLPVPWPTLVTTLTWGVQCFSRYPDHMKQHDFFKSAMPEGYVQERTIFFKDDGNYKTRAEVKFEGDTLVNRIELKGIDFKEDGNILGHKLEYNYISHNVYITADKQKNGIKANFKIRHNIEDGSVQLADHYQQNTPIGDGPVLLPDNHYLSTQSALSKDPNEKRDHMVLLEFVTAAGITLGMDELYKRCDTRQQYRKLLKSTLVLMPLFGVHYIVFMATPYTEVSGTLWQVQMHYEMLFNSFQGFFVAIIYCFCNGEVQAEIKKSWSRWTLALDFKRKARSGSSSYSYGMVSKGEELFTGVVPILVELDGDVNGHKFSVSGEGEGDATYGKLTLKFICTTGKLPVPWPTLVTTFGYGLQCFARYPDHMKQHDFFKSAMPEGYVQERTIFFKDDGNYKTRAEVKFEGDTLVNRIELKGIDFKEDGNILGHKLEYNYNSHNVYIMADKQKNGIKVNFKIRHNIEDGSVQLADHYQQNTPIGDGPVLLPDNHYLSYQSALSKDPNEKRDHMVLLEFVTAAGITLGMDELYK

A word on the Ki: it is a dissociation constant, usually derived from enzyme kinetics or from competition with a known ligand. A low value points to higher affinity. In the case of SVSEIQLMHNLGKHLNSMERVEWLRKKLQDVHNF (peptide, UniProt P01270 32-65, looked up) [parathyroid hormone (PTH)], the “EC50 of signalling to adenylyl cyclase” value in experiment [1] stood at 12.8 nM. For the same molecule, the Ki in experiment [2] was found to be 15.5 nM.
